# US20120094909A1 (Bristol-Myers Squibb, published 2012)
# B1: 2381B02 (designed binder)
# chain: MGVSDVPRDLEVVAATPTSLLISWEPFSRLPGGGEYYRITYGETGGNSPLQQFTVPGSKGTATISGLKPGVDYTITVYAVEYPYDYSGYYHRPISINYRTEIDKPSQHHHHHH
# B2: 2381D04 (designed binder)
# chain: MGVSDVPRDLEVVAATPTSLLISWEPFSRLPGGGEYYRITYGETGGNSPLQQFTVPGSKGTATISGLKPGVDYTITVYAVEFPYDHSGYYHRPISINYRTEIDKPSQHHHHHH
# B3: 2381B04 (designed binder)
# chain: MGVSDVPRDLEVVAATPTSLLISWEPFSRLPGGGEYYRITYGETGGNSPLQQFTVPGSKGTATISGLKPGVDYTITVYAVEYPYEHSGYYHRPISINYRTEIDKPSQHHHHHH
# B4: 2451A10 (designed binder)
# chain: MGVTDVPRDMEVVAATPTSLLISWQPPAVTYGYYRITYGETGGNSTLQQFTVPVYKGTATISGLKPGVDYTITVYAVEYPYDHSGYYHRPISINYRTEIDKPSQHHHHHH
# B5: 2451C11 (designed binder)
# chain: MGIVDVPRDLEVVAATPTSLLISWDPPAGAYGYYRITYGETGGNSPKQQFTVPGYKGTATISGLKPGVDYTITVYAVEYPYDHSGYYHRPISINYRTEIDKPSQHHHHHH
# B6: 1922G04(R25D) (designed binder)
# chain: MGVSDVPRDLEVVAATPTSLLISWDPPSHAYGYYRITYGETGGNSPVQEFTVPIGKGTATISGLKPGVDYTITVYAVEYPWKGSGYYHRPISINYRTGSGSHHHHHH
# notes: Anti-PCSK9 Adnectin, GSGS-His6 tail; the entry already carries the substitution
# B7: 1922G04(R25E) (designed binder)
# chain: MGVSDVPRDLEVVAATPTSLLISWEPPSHAYGYYRITYGETGGNSPVQEFTVPIGKGTATISGLKPGVDYTITVYAVEYPWKGSGYYHRPISINYRTGSGSHHHHHH
# notes: as for B6
# B8: 2382D05 (designed binder)
# chain: MGVSDVPRDLEVVAATPTSLLISWDAPADGGYGYYRITYGETGGNSPVQEFTVPVSKGTATISGLKPGVDYTITVYAVEFDFPGAGYYHRPISINYRTEIDKPSQHHHHHH
# B9: 2381F11 (designed binder)
# chain: MGVSDVPRDLEVVAATPTSLLISWDAPADGGYGYYRITYGETGGNSPVQEFTVPVSKSTATISGLKPGVDYTITVYAVEYTFPGAGYYHRPISINYRTEIDKPSQHHHHHH
# B10: 2381B08 (designed binder)
# chain: MGVSDVPRDLEVVAATPTSLLISWDAPADGGYGYYRITYGETGGNSPVQEFTVPSSKGTATISGLKPGVDYTITVYAVEYTFPGAGYYHRPISINYRTEIDKPSQHHHHHH
# B11: 2381H09 (designed binder)
# chain: MGVSDVPRDLEVVAATPTSLLISWDAPAGGGYGYYRITYGETGGNSPVQEFTVPVSKGTATISGLKPGVDYTITVYAVEFDFVGAGYYHRPISINYRTEIDKPSQHHHHHH
# B12: 2381G09 (designed binder)
# chain: MGVSDVPRDLEVVAATPTSLLISWDAPAGDGYGYYRITYGETGGNSPVQEFTVPVSKGTATISGLKPGVDYTITVYAVEFTFPGAGYYHRPISINYRTEIDKPSQHHHHHH
# B13: 2382C05 (designed binder)
# chain: MGVSDVPRDLEVVAATPTSLLISWDAPADGAYGYYRITYGETGGNSPVQEFTVPVSKGTATISGLKPGVDYTITVYAVEYSFPGAGYYHRPISINYRTEIDKPSQHHHHHH
# B14: 2382B09 (designed binder)
# chain: MGVSDVPRDLEVVAATPTSLLISWDAPADAYGYYRITYGETGGNSPVQEFTVPVSKGTATISGLKPGVDYTITVYAVEFDYPGSGYYHRPISINYRTEIDKPSQHHHHHH
# B15: 2971E02 (designed binder)
# chain: MGVSDVPRDLEVVAATPTSLLISWDAPSDDYGYYRITYGETGGNSPVQEFTVPIGKGTATISGLKPGVDYTITVYAVEFPWPHAGYYHRPISINYRTEIDKPSQHHHHHH
# B16: 2971A03 (designed binder)
# chain: MGVSDVPRDLEVVAATPTSLLISWDPPSDDYGYYRITYGETGGNSPVQEFTVPIGKGTATISGLKPGVDYTITVYAVEFPWPHAGYYHRPISINYRTEIDKPSQHHHHHH
# B17: 2382H09 (designed binder)
# chain: MGVSDVPRDLEVVAATPTSLLISWDAPAAAYGYYRITYGETGGNSPVQEFTVPSSKGTATISGLKPGVDYTITVYAVEFDFPGSGYYHRPISINYRTEIDKPSQHHHHHH
# B18: 2382C09 (designed binder)
# chain: MGVSDVPRDLEVVAATPTSLLISWDAPAEGYGYYRITYGETGGNSPVQEFTVPVSKGTATISGLKPGVDYTITVYAVEFDFPGSGYYHRPISINYRTEIDKPSQHHHHHH
# B19: 2382B10 (designed binder)
# chain: MGVSDVPRDLEVVAATPTSLLISWDAPADAYGYYRITYGETGGNSPVQEFTVPSSKGTATISGLKPGVDYTITVYAVEYDFPGSGYYHRPISINYRTEIDKPSQHHHHHH
# B20: 2971A09 (designed binder)
# chain: MGVSDVPRDLEVVAATPTSLLISWDAPADDYGYYRITYGETGGNSPVQEFTVPIGKGTATISGLKPGVDYTITVYAVEFPWPHAGYYHRPISINYRTEIDKPSQHHHHHH
# B21: 2382H10 (designed binder)
# chain: MGVSDVPRDLEVVAATPTSLLISWDAPAGGYGYYRITYGETGGNSPVQEFTVPVSKGTATISGLKPGVDYTITVYAVEFDFPGSGYYHRPISINYRTEIDKPSQHHHHHH
# B22: 2382D09 (designed binder)
# chain: MGVSDVPRDLEVVAATPTSLLISWDAPAEGYGYYRITYGETGGNSPVQEFTVPVSKGTATISGLKPGVDYTITVYAVEFDFPGAGYYHRPISINYRTEIDKPSQHHHHHH
# Tests used:
# [1] = target: T1, human PCSK9 (proprotein convertase subtilisin kexin type 9) (human, UniProt Q8NBP7 31-692); assay: BLI (Octet Red), 37 C
# T1 construct: immobilized directly (ProteOn), biotinylated (Octet) or in solution, according to the assay; also called hPCSK9; PCSK9-AF647 (labelled form)
# Experimental: Tips were then immersed into a buffer-only well for observation of Adnectin dissociation. Experiments were performed in a temperature controlled environment at either 25 or 37° C., and the oscillation speed was set at 1500 rpm.
# Binding interaction analysis was performed using proprietary software from Fortebio (Fortebio Data Analysis Software version 6.3.0.36). Global fits were performed for all samples, using a 1:1 binding model. The nature of these global fits constrained all values of concentration to a single pair of association and dissociation rates that were themselves constrained to each other. Affinities (KD), association and dissociation rates were averaged over the various loading levels used in the analysis.
# [2] = target: T1, human PCSK9 (proprotein convertase …); assay: cell-based or functional assay
# [3] = target: T1, human PCSK9 (proprotein convertase …); assay: PCSK9:EGFA FRET, competitor EGFA peptide
# [4] = target: T2, human PCSK9 (proprotein convertase subtilisin kexin type 9) (human, UniProt Q8NBP7 31-692); assay: FRET, competitor EGFA peptide
# T2 construct: Directly immobilized (SPR ProteOn), biotinylated (BLI), or in solution, depending on the assay; also called hPCSK9
# Description: (§1) Table 11 summarizes the overall data from these three FRET assays.
# [5] = target: cynomolgus monkey PCSK9 (cynomolgus monkey, UniProt A0A7N9D9N8 150-747); assay: FRET, competitor EGFA peptide
# Description: as §1
Kd [1] [nM],LDLR Depletion (% inhibition at 75 nM) [2] [%],EC50 [3] [nM],IC50 [4] [nM],IC50 [5] [nM],Binder
3.29,125,2.5,–,–,B1
0.237,119,2.9,–,–,B2
0.527,122,2.4,–,–,B3
–,53.7,10.9,–,–,B4
–,70.3,9.7,–,–,B5
–,–,–,2.5,48.1,B6
–,–,–,3.5,58.5,B7
0.314,–,2.6,–,–,B8
1.59,110,4,–,–,B9
4.11,125,2.6,–,–,B10
3.23,94.4,3.4,–,–,B11
1.12,133,3.1,–,–,B12
2.49,105,4,–,–,B13
0.656,105,3.8,–,–,B14
1.78,126,–,–,–,B15
0.806,120,–,–,–,B16
1.86,101,0.9,–,–,B17
0.757,122,3.5,–,–,B18
2.35,100,3,–,–,B19
2.79,132,–,–,–,B20
1.4,119,2.6,–,–,B21
0.304,109,2.6,–,–,B22
